Patent US20240279288A1, “APPLICATION OF PLANT JAZ PROTEINS AND DERIVED POLYPEPTIDES IN PREVENTION AND TREATMENT OF HUMAN AND ANIMAL TUMORS” (ANYANG INSTITUTE OF SINO-COTTON INDUSTRY INNOVATION, priority 2021, published 2024)

Tests used:
[1] = tested on: normal breast epithelial cells MCF10A; assay: Cell cycle detection (PI DNA content), MCF10A; assay type: cell-based; conditions: 0.691 μM, 24 h, vs PBS
Procedure: Cell cycle detection: cells were moderately digested by trypsin, and collected by centrifugation with supernatant removed, and then cells were washed with PBS, and collected by centrifugation at 1,500 rpm for 5 minutes to prepare a single-cell suspension (at a concentration of 1×10^6/ml). 1 ml of single-cell suspension was then taken and centrifuged with the supernatant discarded, and then 500 μl of 70% pre-cooled ethanol were added to fix the cells overnight at 4° C. The next day, cells were collected by centrifugation, resuspended with 1 ml of PBS and centrifuged, and then 100 μl of RNase A solution were added to the cell pellet, followed by placement in water bath at 37° C. for 30 min, and then 400 μl of PI staining solution was added and mixed well, followed by incubation at 4° C. in dark for 30 min and detection on the instrument to record under red fluorescence at the excitation wavelength of 488 nm. Specifically, a DNA content detection kit (cell cycle) (Solarbio, Cat. No.: CA1510) was used.

[2] = tested on: cervical cancer cells Hela; assay: CCK8 cell viability detection, Hela; assay type: cell-based, human; conditions: CCK8, 24 h treatment; read-out: IC50, inhibition of Hela cells
Procedure: CCK8 cell viability detection: cell suspension was seeded in 96-well plates at a concentration of 5×10^4 cells/ml (100 μL/well). The plates were placed in the incubator for pre-culture (at 37° C., 5% CO2), and control and protein agents were added to each well 24 h after seeding. The plates were then placed in the incubator for 24 h, followed by addition of 10 μL CCK8 solution into each well and incubation of the plates in the incubator for 0.5-2 h before the absorbance measurement at 450 nm using a microplate reader.
Analysis of effect of GhJAZ1 protein on the cell cycle and apoptosis of tumor cells

c-Myc = c-Myc (Homo sapiens, UniProt P01106); assay: GST Pull down experiment with c-Myc; assay type: binding; design: with the full length of c-Myc and NMYC, respectively; expressed in transfected cells; host or cells: yeast Y2HGold; conditions: GST-c-Myc and His-GhJAZ1 fusion proteins
c-Myc, sequence (P01106 whole entry, the tested form may be a part): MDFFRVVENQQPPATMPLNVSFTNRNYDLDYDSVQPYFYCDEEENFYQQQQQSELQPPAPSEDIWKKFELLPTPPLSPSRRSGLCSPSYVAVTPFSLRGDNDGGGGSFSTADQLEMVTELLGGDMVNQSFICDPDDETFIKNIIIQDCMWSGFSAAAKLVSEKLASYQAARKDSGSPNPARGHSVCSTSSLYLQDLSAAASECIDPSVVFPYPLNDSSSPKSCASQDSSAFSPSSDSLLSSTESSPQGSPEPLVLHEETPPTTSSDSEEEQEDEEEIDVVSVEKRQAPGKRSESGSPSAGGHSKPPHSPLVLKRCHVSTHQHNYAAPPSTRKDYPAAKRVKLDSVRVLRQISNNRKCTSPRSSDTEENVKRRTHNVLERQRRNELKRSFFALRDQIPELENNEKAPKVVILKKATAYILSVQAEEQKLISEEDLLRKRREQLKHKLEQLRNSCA
From the text: Simultaneously, the interaction was validated by GST Pull down experiment. Firstly, pET-30a-GhJAZ1 (the DNA sequence set forth in SEQ ID No. 39 was inserted into pET-30a (+) vector (YouBio, Cat. No.: VT1212) between NdeI and HindIII) and pGEX-4T-1-c-Myc vectors (the CDS sequence of c-Myc (NCBI accession number: NM_002467.6) was inserted into pGEX-4T-1 vector (YouBio, Cat. No.: VT1253) between BamHI and EcoRI) was constructed and transformed into Escherichia coli BL21, which was placed on ice for 30 min, followed by heat shock at 42° C. for 60 s, and then placed on ice for 2 min, and then LB medium was added for cultivation at 37° C. and 200 rpm for 1 h, which was plated onto LB plates containing corresponding antibiotics for cultivation at 37° C. After colonies grown out, monoclonal clones were picked and shaking for incubation and expanded until the medium began to turn slightly white, and then different concentrations of IPTG were added for induction and cultured overnight under different temperatures setting. Subsequently, centrifugation at 5,000 rpm, 4° C. was carried out for 10 min, with addition of an equal volume of PBS (supplemented with PMSF and DTT) for resuspending. […] The supernatant was transferred into a protein purification column, and washed and eluted following incubation, and then proteins were detected and collected dropwise using protein pre-staining solution. […]

GhHDA6 = assay: CO-IP experiment with GhHDA6; assay type: binding, cotton
GhHDA6, sequence (as listed by the source): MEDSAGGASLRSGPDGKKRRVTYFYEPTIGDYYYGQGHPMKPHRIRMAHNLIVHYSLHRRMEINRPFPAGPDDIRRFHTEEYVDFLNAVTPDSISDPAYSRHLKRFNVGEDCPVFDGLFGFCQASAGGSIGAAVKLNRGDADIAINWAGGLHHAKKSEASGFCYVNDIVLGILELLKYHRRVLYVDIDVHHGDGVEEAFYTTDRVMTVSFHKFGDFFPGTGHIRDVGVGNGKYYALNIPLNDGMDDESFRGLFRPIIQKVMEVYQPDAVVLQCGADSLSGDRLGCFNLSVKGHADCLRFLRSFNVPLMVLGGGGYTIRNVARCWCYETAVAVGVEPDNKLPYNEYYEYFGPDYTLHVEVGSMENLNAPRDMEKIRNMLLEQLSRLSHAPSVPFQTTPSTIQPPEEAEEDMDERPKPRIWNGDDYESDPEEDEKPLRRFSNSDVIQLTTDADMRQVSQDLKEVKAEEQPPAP
Procedure: Steps of method of CO-IP experiment: Non-denaturing lysate was added to 293T cell culture plate (Pricella, Cat. No.: CL-0005), and the cells were completely lysed at 4° C. The lysate was centrifuged at 12,000 rpm for 10 min and the supernatant was collected. The corresponding antibody was added to the obtained non-denatured protein solution, which was incubated overnight at 4° C. Pierce™ protein A/G magnetic agarose (Thermo Fisher Scientific, Inc.) were washed with lysis buffer, followed by addition pre-treated beads to the cell lysate, and incubation at room temperature for 2 hours. The mixture was centrifuged at 4° C., 2,500 rpm for 5 min with supernatant removed, and the agarose beads were washed 5 times with 1 ml of lysis buffer. An appropriate amount of protein loading buffer was added to the pellet, and the sample was incubated in water bath at 100° C. for 10 min. The band of interest was detected by Western blotting.

GhNINJA = assay: Luciferase experiment in tobacco leaves with GhNINJA; assay type: binding, cotton; conditions: no fluorescence on the control
GhNINJA, sequence (as listed by the source): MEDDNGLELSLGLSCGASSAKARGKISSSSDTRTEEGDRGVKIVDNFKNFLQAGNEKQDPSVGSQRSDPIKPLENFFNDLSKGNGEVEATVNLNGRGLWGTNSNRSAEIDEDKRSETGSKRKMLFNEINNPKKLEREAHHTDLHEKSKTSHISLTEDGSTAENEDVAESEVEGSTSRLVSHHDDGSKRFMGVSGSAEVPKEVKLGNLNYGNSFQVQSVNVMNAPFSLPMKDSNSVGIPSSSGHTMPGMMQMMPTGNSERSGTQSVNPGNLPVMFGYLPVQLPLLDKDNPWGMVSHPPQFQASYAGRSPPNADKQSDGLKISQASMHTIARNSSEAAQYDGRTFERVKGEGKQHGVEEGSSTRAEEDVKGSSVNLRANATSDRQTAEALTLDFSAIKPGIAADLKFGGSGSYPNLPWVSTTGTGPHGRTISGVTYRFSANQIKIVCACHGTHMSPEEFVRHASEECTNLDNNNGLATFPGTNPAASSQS
From the text: Method of the luciferase experiment: GhJAZ1 (corresponding encoding gene sequence set forth in SEQ ID No. 39) was subcloned into pCAMBIA-CLuc vector (Chen, H., et al. “Firefly Luciferase Complementation Imaging Assay for Protein-Protein Interactions in Plants.” Plant Physiology 146.2(2008):368-376.) between KpnI and SalI cleavage sites, and the transcription factors such as GhMYC2 (corresponding encoding gene sequence set forth in SEQ ID No. 72), GhNINJA (corresponding encoding gene sequence set forth in SEQ ID No. 74), and GhCOI1 (corresponding encoding gene sequence set forth in SEQ ID No. 80) were subcloned into pCAMBIA-NLuc (Chen, H., et al. “Firefly Luciferase Complementation Imaging Assay for Protein-Protein Interactions in Plants.” Plant Physiology 146.2(2008):368-376.) between KpnI and SalI cleavage sites, respectively. […] Luciferase substrates were applied at the infected leaves before taking images and placed in a dark room for at least 6 min to quench fluorescence, followed by observation on the Nightowl-II LB983 instrument, using IndigoBasic software under the luciferase-5 min setting conditions.

B1: GhJAZ1: cotton JAZ1 protein, gene number Gh_A05G0260, sequence SEQ ID No. 4; prokaryotically expressed with His tag, about 30 KD (protein)
chain: MSSCSESTAMKPARSPEKPSFAQTCNLLSQYLKEKGSFGDLSLGMTCNVEANGTPVVPPPTMNLFPLNDKSDDVCGRNGGNPKNLTSMDLFPQQAGLASKDDSPNKLEPQTAPMTIFYGGQVIVFNDFPANKAKEIMLLASNSSSQSNNSFNPIPFTSSIARSPIESSIGVPPTSKPVHPAQRAVPGDLPIARRASLHRFLEKRKDRITAKAPYQINNSAAAPSLSGDNKSWLGLAAQSP
modifications: His tag
notes: prokaryotically expressed with His tag, about 30 KD
With B1 the “G2-M phase block in MCF10A cells” value [1] was “no G2-M phase block”, the IC50 [2] was 553 nM and the “interaction with c-Myc” value (c-Myc) was “interacted”. For the same molecule, the “interaction with GhHDA6” value (GhHDA6) was “interacts” and the “fluorescence with GhNINJA after applying luciferase substrate” value (GhNINJA) was “stronger fluorescence”.
